Target: Fibroblast activation protein (FAP), recombinant human, carrier-free (BioLegend) (Homo sapiens) (UniProt Q12884)
Experiment: CE-LIF (NECEEM)
Conditions: CE-LIF/NECEEM: buffer for Kd not stated, CE separation (SELEX) 20 kV, 25 C, specificity: 10 min at 37 C, PBS pH 7.2 as control, AuNP assay: room temperature …

Sequence of UniProt Q12884 (Q12884 whole entry): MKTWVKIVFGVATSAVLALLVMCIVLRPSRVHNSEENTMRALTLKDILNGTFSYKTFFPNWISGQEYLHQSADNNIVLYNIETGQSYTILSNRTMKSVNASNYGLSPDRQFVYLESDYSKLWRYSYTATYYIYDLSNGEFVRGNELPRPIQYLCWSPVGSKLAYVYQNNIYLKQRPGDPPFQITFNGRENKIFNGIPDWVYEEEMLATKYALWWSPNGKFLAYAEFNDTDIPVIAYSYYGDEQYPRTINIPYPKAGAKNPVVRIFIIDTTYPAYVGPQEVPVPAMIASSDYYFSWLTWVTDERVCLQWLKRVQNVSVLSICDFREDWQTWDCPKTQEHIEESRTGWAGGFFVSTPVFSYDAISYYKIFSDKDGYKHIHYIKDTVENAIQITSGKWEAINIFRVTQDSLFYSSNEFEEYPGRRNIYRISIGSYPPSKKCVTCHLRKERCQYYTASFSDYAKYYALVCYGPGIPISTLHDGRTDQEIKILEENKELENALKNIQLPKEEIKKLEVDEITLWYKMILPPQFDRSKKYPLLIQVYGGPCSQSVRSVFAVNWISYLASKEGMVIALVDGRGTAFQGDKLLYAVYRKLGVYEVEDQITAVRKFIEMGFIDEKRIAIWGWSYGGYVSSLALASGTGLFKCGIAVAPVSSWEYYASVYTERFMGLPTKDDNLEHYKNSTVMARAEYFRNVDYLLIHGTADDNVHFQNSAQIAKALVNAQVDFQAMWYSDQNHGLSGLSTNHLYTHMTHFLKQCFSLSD

Question: With “AGCAGCACAGAGGTCAGATGCCGCAGGCAGCTGCCATTAGTCTCTATCCGTGACGGTATGCCTATGCGTGCTACCGTGAA [AptFAP-A4]” as the sequence, how does the Kd read?
Answer: 500 nM

Question: Which Kd (exact value only in figure) does the source give for “AGCAGCACAGAGGTCAGATGGCAGCTAAGCAGGCGGCTCACAAAACCATTCGCATGCGGCCCTATGCGTGCTACCGTGAA [AptFAP-A5]” here?
Answer: > 1000 nM

Question: “AGCAGCACAGAGGTCAGATGGCCACATTAGTCTCACCACTACCTGCGTACCTACCGCCGCCCTATGCGTGCTACCGTGAA [AptFAP-A2]” was tested. Which Kd (lowest affinity of the five, exact value only in figure) did it give?
Answer: > 1000 nM

Question: Which Kd (exact value only in figure) does the source give for “AGCAGCACAGAGGTCAGATGGCCATCCCCCCGTCCGATGAGTGGTGCTCCTATGCGTTCCCCTATGCGTGCTACCGTGAA [AptFAP-A3]” here?
Answer: > 1000 nM

Question: How did the Kd turn out when “AGCAGCACAGAGGTCAGATGGCGAAGCGTACCGGCTACCCAGTGACAGTCGCCGTGGGTCCCTATGCGTGCTACCGTGAA [AptFAP-A1]” was run?
Answer: 500 nM

Reference: publication PMC9965484
